Measured values as given in article PMC3320604, “A Genome-Wide Screen for Genetic Variants That Modify the Recruitment of REST to Its Target Genes”.
Where a chain is given by its changes, count along the chain named.

T1: HisMBP-REST/DBD (UniProt Q13127 159-412)
T1 sequence: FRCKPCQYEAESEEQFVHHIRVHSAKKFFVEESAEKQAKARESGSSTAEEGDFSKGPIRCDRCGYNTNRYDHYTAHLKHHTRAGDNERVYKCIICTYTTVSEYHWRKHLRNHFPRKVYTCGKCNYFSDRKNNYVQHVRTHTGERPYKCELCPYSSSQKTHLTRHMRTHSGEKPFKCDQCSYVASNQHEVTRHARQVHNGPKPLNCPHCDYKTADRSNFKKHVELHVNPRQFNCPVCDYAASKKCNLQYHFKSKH

B1: Ideal RE1 (Chrm4) (dsDNA)
DNA 1: TCAGCCTCTCTTCAGCACCTCGGACAGCTCCGGACCTCTC
DNA 2: GAGAGGTCCGGAGCTGTCCGAGGTGCTGAAGAGAGGCTGA
B2: Mutated RE1 (Mut) (dsDNA)
DNA 1: B1 DNA 1 with C18G, C19G, G22C, G23C
DNA 2: B1 DNA 2 with C18G, C19G, G22C, G23C

Legend:
[1] = target: T1, HisMBP-REST/DBD; assay: competition EMSA; 10 mM Tris-HCl pH 8.0, 100 mM KCl, 50 uM ZnCl2 (printed '50 M ZnCl', symbols lost), 2 mM 2-mercaptoethanol, 10% glycerol, 0.1% NP-40, 0.1 mg/ml BSA; 0.5 nM probe, 150 nM competitor, 40 nM protein, 1 h; temperature lost in text; conditions: protein: recombinant; tags: His-MBP
[2] = target: T1, HisMBP-REST/DBD; assay: competition; 10 mM Tris-HCl pH 8.0, 100 mM KCl, 50 uM ZnCl2 (printed '50 M ZnCl', symbols lost), 2 mM 2-mercaptoethanol, 10% glycerol, 0.1% NP-40, 0.1 mg/ml BSA; 0.5 nM probe, 150 nM competitor, 40 nM protein, 1 h; temperature lost in text; conditions: protein: recombinant; tags: His-MBP

| Binder | binding result [1] | binding result [2] |
| --- | --- | --- |
| B1 | binds | – |
| B2 | – | no binding |
